The target of the assay is T1, CXCR4 (Homo sapiens, UniProt P61073).
T1 construct: expressed in transfected cells; host or cells: QT6 cells, calcium phosphate transfection
The assay can be described thus: HIV-1 gp 120-CXCR4 mediated cell-cell fusion assay (luciferase reporter). Particulars: for inhibiting cell-cell fusion, compared with N-terminal SDF-1 peptides SEQ ID NOS:8 and 10: effector 293 cells + QT6 target cells (CD4, CXCR4), peptide concentration 25 μM (FIG. 1). Type of assay: cell-based. (Reporter assays use an easily measured gene product as a stand-in for the process of interest.)

Where no end group is shown, it is not given here.

T1 sequence (P61073 whole entry): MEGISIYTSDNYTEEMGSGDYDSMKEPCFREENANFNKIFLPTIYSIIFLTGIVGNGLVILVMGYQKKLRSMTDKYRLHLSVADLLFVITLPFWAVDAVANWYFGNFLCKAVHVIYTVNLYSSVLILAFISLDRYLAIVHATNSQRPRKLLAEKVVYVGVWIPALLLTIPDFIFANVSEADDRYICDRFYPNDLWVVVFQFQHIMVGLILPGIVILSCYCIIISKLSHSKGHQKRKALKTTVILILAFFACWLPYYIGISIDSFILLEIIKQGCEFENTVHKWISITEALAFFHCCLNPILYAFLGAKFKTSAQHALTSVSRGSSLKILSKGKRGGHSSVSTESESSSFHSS

As to “LSYRCPCRFFGGLKWIQEYLEKALN (cysteine pairing not given here) [SEQ ID NO:6, SDF-1 amino acids 5-14 and 55-67 linked by (Gly)2]”, the “inhibiting cell-cell fusion, compared with N-terminal SDF-1 peptides SEQ ID NOS:8 and 10” value is given as “substantially more effective”.

“KPVSLSYRCPCRFFGGQGLKWIQEYLEKALN (cysteine pairing not given here) [SEQ ID NO:5, SDF-1 amino acids 1-14 and 55-67 linked by a (Gly)4 bridge]”: the “inhibiting cell-cell fusion, compared with N-terminal SDF-1 peptides SEQ ID NOS:8 and 10” value is “substantially more effective”. As to “LKWIQEYLEKALN [SEQ ID NO:9, C-terminal SDF-1 peptide prepared for comparison, reference compound]”, the “activity in inhibiting cell-cell fusion” value (higher concentration of 50 μM) is “only negligibly active”. Take “LSYRCPCRFFGGGGLKWIQEYLEKALN (cysteine pairing not given here) [SEQ ID NO:4, SDF-1 amino acids 5-14 and 55-67 linked by (Gly)4]”: the “inhibiting cell-cell fusion, compared with N-terminal SDF-1 peptides SEQ ID NOS:8 and 10” value is “substantially more effective”. Take “LSYRCPCRFFKKKKLKWIQEYLEKALN (cysteine pairing not given here) [SEQ ID NO:7, SDF-1 amino acids 5-14 and 55-67 linked by (Lys)4]”: the “inhibiting cell-cell fusion, compared with N-terminal SDF-1 peptides SEQ ID NOS:8 and 10” value is listed as “substantially more effective”.

(Values after patent publication US6613742B1, “Chemokine-derived synthetic peptides” (Thomas Jefferson University, priority 1999, dated 2003).)
